# System: TifA RB69 (phage RB69)
# Test: fluorescence polarization
# Conditions: FP: 50 mM Tris-HCl pH 7.5, 150 mM NaCl, 1 mM DTT, 5% glycerol, 0.1 mg/ml BSA, 5 nM nucleic acid, 30 min at 37 C, SEC: 20 mM Tris-HCl pH 8.5, 50 mM NaCl
row,Substance,Kd
1,artJ RNA 15 nt,2.3 µM
2,artJ RNA 30 nt,0.85 µM
3,artJ RNA 45 nt,0.36 µM

# Reference: publication PMC10853763
